We go through 1 substance from publication PMC7589674.

This assay deals with The-05 (variant of the HFt-MP-PASE construct bearing the Lys53Glu, Lys71Glu, Thr135Glu and Lys143Glu mutations) (human). The assay is described as follows: SEC + other: dynamic light scattering + other: negative-stain TEM; empty The-05; Superose 6 in PBS pH 7.4; DLS at 25 °C, 1 mg/mL in diluted PBS (1:2); TEM 0.1 mg/mL, 2% uranyl acetate; assembly of the subunits into the cage.

A word on the stoichiometry N: it is a count of units in the complex or per binding partner.

As for “The-05 (variant of the HFt-MP-PASE construct bearing the Lys53Glu, Lys71Glu, Thr135Glu and Lys143Glu mutations) (designed binder)”, the stoichiometry N stood at 24.
